Changes are numbered by the printed parent chain.

Test [1] addresses T1, recombinant soluble human TL1A (human, UniProt O95150 71-251).
T1 construct: Homotrimer, expressed in HEK293 and purified over HitrapNTA; no tag is described; Used biotinylated in the HTRF assay and in flow cytometry; also called rsTL1A; hTL1A
T1 sequence: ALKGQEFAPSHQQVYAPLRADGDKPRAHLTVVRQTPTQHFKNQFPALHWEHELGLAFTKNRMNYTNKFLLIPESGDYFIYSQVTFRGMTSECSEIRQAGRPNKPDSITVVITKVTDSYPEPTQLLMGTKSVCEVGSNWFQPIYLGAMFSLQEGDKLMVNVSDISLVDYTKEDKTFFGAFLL
The test is described as follows: plate ELISA, TL1A coated, antibody titrated; plate of Lymβ 1. For orientation: ELISA stands for enzyme-linked immunosorbent assay.
Description: (§1) The first 6 rows of each plate were coated with the test article cytokine, and the last two rows were coated with TL1A as a positive control. Rows 1 and 2 were duplicate rows where the test article cytokine was tested for binding to increasing concentrations of its corresponding anti-cytokine positive control antibody. […] The experiment for each cytokine was repeated three times.
(§2) Plates were incubated overnight at 4° C. After washing the plates three times (3×) with 300 μL PBST using a plate washer (model ELx405; BioTek), plates were blocked by incubating for 1 hour at room temperature with 300 μL of blocking buffer (PBST+0.5% BSA) in each well. […] Plates were then washed 5 times with PBST using the plate washer.

Test [2] addresses T1, recombinant soluble human TL1A. The test is described as follows: plate ELISA, TL1A coated, antibody titrated; plate of TNF β.
Description: as §1, §2
Test [3] shares this target. The test is described as follows: plate ELISA, TL1A coated, antibody titrated; plate of TNF α.
Description: as §1, §2
Test [4] has as its target T2, endogenous TL1A of stimulated cynomolgus monkey peripheral blood (cynomolgus monkey, UniProt G7PRK8 72-251).
T2 construct: also called sTL1A (cynomolgus)
T2 sequence: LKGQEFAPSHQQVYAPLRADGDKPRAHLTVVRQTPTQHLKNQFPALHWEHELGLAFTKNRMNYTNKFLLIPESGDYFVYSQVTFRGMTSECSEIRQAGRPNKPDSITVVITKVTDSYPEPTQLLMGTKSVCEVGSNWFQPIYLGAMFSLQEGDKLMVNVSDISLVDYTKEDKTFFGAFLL
In words: MSD ligand-binding assay of 1D1 1.31-free soluble TL1A in plasma of cynomolgus whole blood stimulated 24 h with immune complex + IL-12/IL-18 (representative experiment).
Description: Controls included stimulation without antibody as well as no, or single stimulation controls (only IC or only IL-12/IL-18) in triplicate. After 24 hours of culture at 37° C., 200 μL of 5% bovine serum albumin in PBS were added and mixed well with the 100 μL of blood cultures to dilute plasma (dilution factor: 3). […] IFNγ was measured using the MSD human IFNγ kit (Catalog No. K151AEB-1) following the manufacturer's instructions. […] The following day, plates were washed three times with 150 μL per well of 0.1% Tween 20 in PBS, followed with 150 μL per well of blocking solution (5% bovine serum albumin in PBS), then the plates were incubated at room temperature for 1 hour with orbital shaking (1500 rpm). […] Plates were incubated at room temperature for 2 hours with orbital shaking (1500 rpm) followed by the same plate wash protocol mentioned above. TL1A standard curves were generated using recombinant cynomolgus monkey soluble TL1A. Plates were read following the manufacturer's procedure, standard curve and plasma concentration of the cytokine were calculated using the MSD software per manufacturer's instructions.

For test [5], the target named is T2, endogenous TL1A of stimulated …. In words: cell-based or functional assay.
The target of test [6] is T1, recombinant soluble human TL1A. In words: cell-based or functional assay.
Test [7] addresses T3, endogenous TL1A of stimulated human peripheral blood (human, UniProt O95150 72-251, limits assumed).
T3 sequence (looked up): T2 sequence with L39F, V78I
In words: cell-based or functional assay.

In test [8] the target is T4, recombinant soluble rabbit TL1A (rabbit).
T4 construct: also called rabbit rsTL1A
T4 chain: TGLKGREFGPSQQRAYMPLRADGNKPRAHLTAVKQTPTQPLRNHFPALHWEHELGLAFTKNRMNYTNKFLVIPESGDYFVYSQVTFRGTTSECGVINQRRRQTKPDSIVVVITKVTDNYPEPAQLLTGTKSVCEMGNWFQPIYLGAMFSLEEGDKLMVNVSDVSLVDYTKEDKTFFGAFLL
The test is described as follows: SPR, IgG captured on anti-hIgG, TL1A injected. A general note: In SPR one partner is held on a chip, and binding of the other changes the refractive index at the surface.
Excerpt: The antibodies were captured via directly immobilized anti-human IgG (GE Healthcare) onto a carboxymethylated dextran sensor chip surface (CM5) using a Biacore T100 or T200 instrument. Anti-human IgG was immobilized through amine coupling to densities of approximately 4,000-13,000 response units (RU). […] At the end of each cycle, the entire anti-hIgG surface was regenerated by a 30-second pulse of 3M MgCl₂ followed by two consecutive 15-second pulses of PBS-NET. […] All injections were performed at 25° C. at a collection rate of 10 Hz. All sensorgrams were double referenced by using both a control surface and buffer injections. Rate constants were determined by fitting the data to a 1:1 model in Biacore T100, T200 evaluation software v1.0, or BIAevaluation software v4.1.1 and the equation KD=Kd/kₐ.
At the highest cytokine concentrations, the dissociation phase was sometimes extended to 60 minutes to achieve at least a 5% decrease in binding signal.

Test [9] deals with T3, endogenous TL1A of stimulated human …. The test is described as follows: MSD ligand-binding assay of 1D1 1.31-free sTL1A in plasma of stimulated human blood.
Description: After 24 hours of culture at 37° C., 100 μL of 5% bovine serum albumin in PBS were added and mixed well with the 200 μL of blood cultures to dilute plasma (dilution factor: 1.5). […] IFNγ was measured using the MSD human IFNγ kit (Catalog No. K151AEB-1) following the manufacturer's instructions. […] The following day, plates were washed three times with 150 μL per well of 0.1% Tween 20 in PBS, followed with 150 μL per well of blocking solution (5% bovine serum albumin in PBS), then the plates were incubated at room temperature for 1 hour with orbital shaking (1500 rpm). After the plates were washed as mentioned above, diluted plasma samples were added and incubated at 4° C. overnight. […] TL1A standard curves were generated using recombinant human soluble TL1A. Plates were read following the manufacturer's procedure, standard curve and plasma concentration of the cytokine were calculated with the MSD software.
Test [10] has as its target T1, recombinant soluble human TL1A. In words: plate ELISA, TL1A coated, antibody titrated; plate of TNFSF10.
Description: as §1, §2
For test [11] the target is unchanged. In words: cell-based or functional assay. The source holds these as a separate data set.
For test [12], the target named is T3, endogenous TL1A of stimulated human …. The test is described as follows: cell-based or functional assay. This is another data set of the same source.
Test [13] concerns the target T1, recombinant soluble human TL1A. The test is described as follows: SPR, IgG captured on anti-hIgG, TL1A injected; off rate too slow to measure.
The target in test [14] is human TNFSF14 (LIGHT) (human, UniProt O43557 74-240, limits assumed). In words: plate ELISA, cytokine coated.
Description: as §1, §2
The target in test [15] is T5, human Lymphotoxin α2-β1 (human, UniProt P01374 35-205; Q06643 49-244, limits assumed).
T5 construct: Copies read from the name α2-β1; also called Lymβ 1
T5 sequence (looked up) 1: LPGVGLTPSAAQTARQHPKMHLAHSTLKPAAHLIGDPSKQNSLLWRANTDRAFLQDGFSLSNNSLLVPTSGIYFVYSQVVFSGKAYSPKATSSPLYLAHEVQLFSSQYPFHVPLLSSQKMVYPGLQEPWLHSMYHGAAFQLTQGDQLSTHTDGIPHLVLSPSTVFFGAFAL
T5 sequence (looked up) 2: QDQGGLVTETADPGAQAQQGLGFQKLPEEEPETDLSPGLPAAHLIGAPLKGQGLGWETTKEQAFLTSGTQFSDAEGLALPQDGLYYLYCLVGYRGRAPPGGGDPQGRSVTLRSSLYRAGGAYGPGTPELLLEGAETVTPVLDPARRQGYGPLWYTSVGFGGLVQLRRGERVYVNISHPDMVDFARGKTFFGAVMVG
The test is described as follows: plate ELISA, cytokine coated.
Description: as §1, §2

Test [16] deals with T6, human TNF-α (human, UniProt P01375 77-233).
T6 construct: also called TNF alpha
The test is described as follows: plate ELISA, cytokine coated.
Description: as §1, §2

Test [17] addresses T7, human Lymphotoxin α1-β2 (human, UniProt P01374 35-205; Q06643 49-244, limits assumed).
T7 construct: Copies read from the name α1-β2; also called Lymβ 2
T7 sequence (looked up) 1: T5 sequence (looked up) 1
T7 sequence (looked up) 2: T5 sequence (looked up) 2
The test is described as follows: plate ELISA, cytokine coated.
Description: as §1, §2

Test [18] has as its target T8, human TNF-β (human, UniProt P01374 35-205).
T8 construct: The source sentence prints 'Human TNF-from Peprotech'
T8 sequence (looked up): T5 sequence (looked up) 1
In words: plate ELISA, cytokine coated.
Description: as §1, §2

Test [19] concerns the target human TNFSF10 (TRAIL) (human, UniProt P50591 114-281). The test is described as follows: plate ELISA, cytokine coated.
Description: as §1, §2

T6 sequence (P01375 77-233 limits assumed): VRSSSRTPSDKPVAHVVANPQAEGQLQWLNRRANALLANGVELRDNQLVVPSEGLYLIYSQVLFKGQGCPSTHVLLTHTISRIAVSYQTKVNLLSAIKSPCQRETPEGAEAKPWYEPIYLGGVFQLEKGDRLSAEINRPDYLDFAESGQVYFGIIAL
human TNFSF14 (LIGHT), sequence (O43557 74-240 limits assumed): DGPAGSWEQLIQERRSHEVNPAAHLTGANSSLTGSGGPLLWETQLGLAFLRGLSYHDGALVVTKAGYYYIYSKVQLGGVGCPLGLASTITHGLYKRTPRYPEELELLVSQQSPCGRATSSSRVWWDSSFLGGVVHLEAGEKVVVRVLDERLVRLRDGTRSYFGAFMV
human TNFSF10 (TRAIL), sequence (P50591 114-281 limits assumed): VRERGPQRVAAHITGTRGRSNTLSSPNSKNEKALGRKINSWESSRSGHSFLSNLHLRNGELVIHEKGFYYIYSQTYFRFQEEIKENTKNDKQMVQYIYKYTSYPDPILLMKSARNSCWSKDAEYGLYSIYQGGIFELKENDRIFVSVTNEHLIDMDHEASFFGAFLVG

B1: 1D1 1.31 (antibody, human IgG1, kappa, V domains shown)
VH: QVQLVQSGAEVKKPGASVKVSCKASGYDFTYYGISWVRQAPGQGLEWMGWISTYNGNTHYARMLQGRVTMTTDTSTRTAYMELRSLRSDDTAVYYCARENYYGSGAYRGGMDVWGQGTTVTVSS
VL: EIVLTQSPATLSLSPGERATLSCRASQSVSSYLAWYQQKPGQAPRLLIYDASNRATGIPARFSGSGSGTDFTLTISSLEPEDFAVYYCQQRSNWPWTFGQGTKVEIKR
notes: Full length human IgG1 with effector function-null mutations in the Fc, produced in CHO cells; Used biotinylated for staining of monocytes
Take B1: the EC50 in [1] worked out at 0.0063 ng/mL; in test [2], 0.0023 ng/mL; in test [3], 0.0082 ng/mL; in test [10] it was 0.008 ng/mL. The IC50 was 0.000169 nM in test [4] and 0.00106 nM in [9]. Also, the “inhibition of IFNγ secretion in stimulated cynomolgus whole blood, IC50” value in [5] is 0.036 nM. In [6], the “inhibition of NFκB activation by 150 pM TL1A in TF-1-NFκB-luciferase cells, IC50” value stood at 95 pM. The “inhibition of caspase activation by 87 pM TL1A in TF-1 cells, IC50” value in test [6] was 69 pM. For the same molecule, the “inhibition of IFNγ secretion in stimulated human whole blood, IC50” value in [7] was determined as 0.277 nM. Besides, the Kd in test [8] was 0.361 nM; in [13], less than 0.1 nM. For the same molecule, the koff in [8] was 0.00011 s⁻¹. The association rate constant (kon) in test [8] is 320000 M⁻¹ s⁻¹. For the same molecule, in test [8], the t1/2 came out at 1.69 h. The “Caspase Assay, average IC50” value in [11] came to 0.106 nM. In test [11], the “NFkB Assay, average IC50” value came to 0.15 nM. Further, the “HWB Assay, average IC50” value in [12] was 0.00167 nM. Further, the binding result in test [14], in test [15], in test [16], in [17], in test [18] and in test [19] was “no binding (tested: 25 µg/mL highest antibody concentration)” throughout.

As usually defined, the EC50 is the concentration at which the effect is half-maximal. As a reminder, the IC50 is the concentration needed to halve the response being measured. Usually Kd stands for the free concentration of one partner at which half of the binding sites on the other are occupied at equilibrium, for simple one-to-one binding. The term koff denotes the first-order rate constant of dissociation. For orientation: kon means the second-order rate constant of association.
